Experimental data taken from paper PMC5701006.

Experiments:
[1] = target: human TGF-β3 on the chip with hTβRII extracellular domain bound (2 μM hTβRII in running buffer and samples) (human) (UniProt P37173); assay: SPR; as a1 but with 2 μM hTβRII in the HBS-EP running buffer and in the injected hTβRI samples
[2] = target: H. polygyrus TGF-β mimic (Hp-TGM), recombinant, amine-coupled to the chip (Heligmosomoides polygyrus); assay: as above
[3] = target: H. polygyrus TGF-β mimic (Hp-TGM), recombinant, amine-coupled to the chip (Heligmosomoides polygyrus); assay: SPR; BIAcore X100; hTGF-β3 or Hp-TGM amine-coupled to a CM5 chip; two-fold dilutions of hTβRI (from 4 µM downwards) injected in HBS-EP at 30 µL/min, room temperature; global fit, simple 1:1 model

B1: human TGF-β type I receptor extracellular domain (receptor)
chain: LQCFCHLCTKDNFTCVTDGLCFVSVTETTDKVIHNSMCIAEIDLIPRDRPFVCAPSSKTGSVTTTYCCNQDHCNKIELPTTVKSSPGLGPVEL
Kd [1]: 367 nM
koff [1]: 0.00179 s⁻¹
kon [1]: 4890 M⁻¹ s⁻¹
Kd [2]: 348 nM
koff [2]: 0.00315 s⁻¹
kon [2]: 9070 M⁻¹ s⁻¹
Kd [3]: 351 nM
koff [3]: 0.00386 s⁻¹
kon [3]: 11000 M⁻¹ s⁻¹
